Experimental findings from patent US20090312253A1 are described below.

Positions count from the first letter of the chain named. Names may count otherwise.

Assay [1] addresses LRP6 expressed on HEK cells transfected with the LRP6 plasmid. The assay is described as follows: Dkk1-AP conditioned medium on LRP6-transfected HEK cells, AP activity in cell lysate, wild type = 100%.
Assay [2] has the same target. The assay is described as follows: binding of Dkk1 to LRP6, assay not described for this mutant (data not shown).

B1: mouse Dkk1-AP mutant H210E (ligand, UniProt O54908 32-272, looked up, not shown: large carriers)
chain: TLNSVLINSNAIKNLPPPLGGAGGQPGSAVSVAPGVLYEGGNKYQTLDNYQPYPCAEDEECGSDEYCSSPSRGAAGVGGVQICLACRKRRKRCMRHAMCCPGNYCKNGICMPSDHSHFPRGEIEESIIENLGNDHNAAAGDGYPRRTTLTSKIYHTKGQEGSVCLRSSDCAAGLCCAREFWSKICKPVLKEGQVCTKHKRKGSHGLEIFQRCYCGEGLACRIQKDHHQASNSSRLHTCQRH
B1 displayed a reduction of binding to LRP6 against wild-type Dkk1 in assay [1] above 50%.

B2: mouse Dkk1-AP mutant R242E (ligand, UniProt O54908 32-272, looked up, not shown: large carriers)
chain: B1 chain with E179H, R211E
The molecule B2 registered a reduction of binding to LRP6 against wild-type Dkk1 in assay [1] above 50%.

B3: mouse Dkk1-AP mutant K217E (ligand, UniProt O54908 32-272, looked up, not shown: large carriers)
chain: B1 chain with E179H, K186E
The molecule B3 registered a reduction of binding to LRP6 against wild-type Dkk1 in assay [1] above 50%.

B4: Dkk1 mutant L266A (ligand, mouse, UniProt O54908 32-272, looked up, not shown: large carriers)
chain: B1 chain with E179H, L235A
Consider B4, for which the reduction of binding to LRP6 against wild-type Dkk1 in assay [2] came out at 40%.

B5: mouse Dkk1-AP mutant H267E (ligand, UniProt O54908 32-272, looked up, not shown: large carriers)
chain: B1 chain with E179H, H236E
In assay [1], B5 gave a reduction of binding to LRP6 against wild-type Dkk1 of 43%.
